Results reported in patent US20040253677.

System: HA-GβL

myc-mTOR (full-length)
in vitro mTOR kinase activity (autophosphorylation and activity towards GST-S6K1): GβL-mediated stimulation of the mTOR kinase activity correlates with the amount of GβL bound to mTOR and is independent of raptor
